# Target: T1, fibroin sheet (Bombyx mori, UniProt P05790)
# T1 construct: purchased Sigma-Aldrich
# Assay: Color intensity of modified fibroin sheet after glucose/HRP/4-aminoantipyrine chromogenic reaction
# Assay type: biochemical
# Conditions: fibroin sheet adsorbed from 0.3 mg/mL solution, 10 mM glucose, 1000 U/mL HRP, 5 minutes, ImageJ, average of five sheets
# Protocol: After methanol was added to the collected sheet, methanol was removed and dried overnight. The measurement of the weight of the fibroin sheet cut into 20 mm×40 mm size confirmed that it was 1.25 μg/mm^2 fibroin sheet. Fibroin sheets of 5 mm×5 mm size were cut and added to an aqueous solution of 0.3 mg/mL Compound 1 (0.2 mL) and allowed to stand for 10 minutes. Fibroin sheets were immersed in PBS buffer (1 mL, pH7.4) containing 0.05 wt % Tween20 for 15 minutes×2 and in PBS (1 mL, pH7.4) for 1 minute. The modified fibroin sheet was obtained by drying at room temperature.
# A fibroin sheet adsorbed with Compound 6 was prepared in the same manner as Manufacturing Example 2 except that 0.3 mg/mL Compound 6 aqueous solution was used instead of the aqueous solution of Compound 1.
# 1.5 μL of phosphate buffered saline (pH7.4) containing 10 mM glucose, 1000 U/mL HRP, 3.7 mM 4-aminoantipyrine, 6.4 mM sodium 3-[ethyl(m-tolyl) amino]-2 hydroxy-1 propanesulfonate was added dropwise to a fibroin sheet modified with Compound 6 obtained in Manufacturing Example 12 and allowed to stand in a wet box for 5 minutes. […] After drying the sheet, the sheet was read by a scanner to obtain image data. […] Five sheets were prepared and subjected to the same evaluation, and the average value of color intensity (Color Intensity, hereinafter CI value) was calculated. The calculated CI value was 54.5.
row,Molecule,CI value (average color intensity)
1,"Compound 6: Thioflavin T acid bound to glucose oxidase (GOx); 5.6 molecules per GOx molecule (conjugate, UniProt P13006 17-605, looked up, Thioflavin T acid conjugated, 5.6 per GOx, 5.6 molecules per GOx molecule) Glucose oxidase: LPHYIRSNGIEASLLTDPKDVSGRTVDYIIAGGGLTGLTTAARLTENPNISVLVIESGSYESDRGPIIEDLNAYGDIFGSSVDHAYETVELATNNQTALIRSGNGLGGSTLVNGGTWTRPHKAQVDSWETVFGNEGWNWDNVAAYSLQAERARAPNAKQIAAGHYFNASCHGVNGTVHAGPRDTGDDYSPIVKALMSAVEDRGVPTKKDFGCGDPHGVSMFPNTLHEDQVRSDAAREWLLPNYQRPNLQVLTGQYVGKVLLSQNGTTPRAVGVEFGTHKGNTHNVYAKHEVLLAAGSAVSPTILEYSGIGMKSILEPLGIDTVVDLPVGLNLQDQTTATVRSRITSAGAGQGQAAWFATFNETFGDYSEKAHELLNTKLEQWAEEAVARGGFHNTTALLIQYENYRDWIVNHNVAYSELFLDTAGVASFDVWDLLPFTRGYVHILDKDPYLHHFAYDPQYFLNELDLLGQAAATQLARNISNSGAMQTYFAGETIPGDNLAYDADLSAWTEYIPYHFRPNYHGVGTCSMMPKEMGGVVDNAARVYGVQGLRVIDGSIPPTQMSSHVMTVFYAMALKISDAILEDYASMQ",54.5
2,"GOx: glucose oxidase (manufactured by Sigma-Aldrich, G2133), unmodified comparison (protein, UniProt P13006 17-605, looked up) Glucose oxidase: LPHYIRSNGIEASLLTDPKDVSGRTVDYIIAGGGLTGLTTAARLTENPNISVLVIESGSYESDRGPIIEDLNAYGDIFGSSVDHAYETVELATNNQTALIRSGNGLGGSTLVNGGTWTRPHKAQVDSWETVFGNEGWNWDNVAAYSLQAERARAPNAKQIAAGHYFNASCHGVNGTVHAGPRDTGDDYSPIVKALMSAVEDRGVPTKKDFGCGDPHGVSMFPNTLHEDQVRSDAAREWLLPNYQRPNLQVLTGQYVGKVLLSQNGTTPRAVGVEFGTHKGNTHNVYAKHEVLLAAGSAVSPTILEYSGIGMKSILEPLGIDTVVDLPVGLNLQDQTTATVRSRITSAGAGQGQAAWFATFNETFGDYSEKAHELLNTKLEQWAEEAVARGGFHNTTALLIQYENYRDWIVNHNVAYSELFLDTAGVASFDVWDLLPFTRGYVHILDKDPYLHHFAYDPQYFLNELDLLGQAAATQLARNISNSGAMQTYFAGETIPGDNLAYDADLSAWTEYIPYHFRPNYHGVGTCSMMPKEMGGVVDNAARVYGVQGLRVIDGSIPPTQMSSHVMTVFYAMALKISDAILEDYASMQ",30.8
